Data published in paper PMC4432866 (Nature communications, 2014).
Like-named read-outs stand apart in the source and are kept apart here. Blank lines part the entries; values can stand above or below the binder they belong to. Ends that are not written are not given here.

B1: talin-F3 (His-tagged, pull-down) (domain or fragment, mouse, UniProt P26039 309-405, looked up)
chain: GVSFFLVKEKMKGKNKLVPRLLGITKECVMRVDEKTKEVIQEWSLTNIKRWAASPKSFTLDFGDYQDGYYSVQTTEGEQIAQLIAGYIDIILKKKKS

Tests used:
[1] = molecular target: talin-R9 (pull-down competitor) (mouse, UniProt P26039 1654-1848); assay: pull-down
talin-F3 = talin-F3 (mouse, UniProt P26039 309-405); assay: NMR titration
[2] = molecular target: B1; assay: pull-down
talin-F2F3 [3] = molecular target: T1, talin-F2F3 (mouse, UniProt P26039 206-405); assay: NMR titration
talin-F2F3 [4] = molecular target: T1, talin-F2F3; assay: NMR titration; remark: listed apart in the source

Binder: B1
binding result [1]: binds

Binder: KKKITIHDRKEFAKFEEERARAKWDTANNPLYKEATSTFTNITYRGT (peptide, UniProt P05106 742-788, looked up) [integrin β3 CT (716–762) L717K/L718K]
binding result (talin-F3): binds

Binder: KKKITIHDRKEFAKFEEERARAKWDTANNPLYKEATSTFTNITYRGT (peptide, UniProt P05106 742-788, looked up, also: His-tagged) [integrin β3 CT (716–762) L717K/L718K (His-tagged, pull-down)]
binding result [2]: binds

Continued, values first:

binding result (talin-F2F3 [3]): binds
B2: talin-R9 (domain or fragment, mouse, UniProt P26039 1654-1848, looked up)
chain: KAPGQLECETAIAALNSCLRDLDQASLAAVSQQLAPREGISQEALHTQMLTAVQEISHLIEPLASAARAEASQLGHKVSQMAQYFEPLTLAAVGAASKTLSHPQQMALLDQTKTLAESALQLLYTAKEAGGNPKQAAHTQEALEEAVQMMTEAVEDLTTTLNEAASAAGVVGGMVDSITQAINQLDEGPMGDPEG

binding result (talin-F2F3 [4]): binds
binding result (talin-F3): binds
Binder: DIDQMFSTLLGEMDLLTQSLGVDT (peptide, UniProt Q7Z5R6 7-30, looked up) [RIAM-N]
